What was measured:
[1] = biological target: T1, ZEBRA Z7 (Epstein-Barr virus, UniProt P03206 P03206:170-195); assay: EMSA; no dimerization domain; details: tags: N-terminal His6 (pET15b); label: biotin
T1 chain: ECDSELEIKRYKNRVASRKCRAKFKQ

[2] = biological target: ZEBRA Z5 (Epstein-Barr virus, UniProt P03206 P03206:140-195); assay: EMSA; no dimerization domain; details: tags: N-terminal His6 (pET15b); label: biotin
[3] = biological target: ZEBRA Z3 (Epstein-Barr virus, UniProt P03206 P03206:1-140); assay: EMSA; neither DIM nor DB domain; details: tags: N-terminal His6 (pET15b); label: biotin
Chain of ZEBRA Z3 (P03206 1-140, one chain of several): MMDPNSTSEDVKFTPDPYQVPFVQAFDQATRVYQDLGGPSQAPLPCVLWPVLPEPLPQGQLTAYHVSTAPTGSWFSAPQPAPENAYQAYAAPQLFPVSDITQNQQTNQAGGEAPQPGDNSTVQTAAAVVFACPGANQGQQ

[4] = biological target: ZEBRA Z2 (Epstein-Barr virus, UniProt P03206 P03206:1-170); assay: EMSA; neither DIM nor DB domain; details: tags: N-terminal His6 (pET15b); label: biotin
Chain of ZEBRA Z2 (P03206 1-170, one chain of several): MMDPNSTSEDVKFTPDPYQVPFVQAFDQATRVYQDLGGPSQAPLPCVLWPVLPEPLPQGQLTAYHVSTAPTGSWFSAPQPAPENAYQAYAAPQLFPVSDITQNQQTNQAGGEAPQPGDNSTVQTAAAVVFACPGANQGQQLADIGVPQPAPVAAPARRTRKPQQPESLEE

[5] = biological target: ZEBRA full-length (Z-FL) (Epstein-Barr virus, UniProt P03206 P03206:1-245); assay: EMSA; poly(dI-dC), 1 mM DTT, 4 C; details: tags: N-terminal His6 (pET15b); chain copies: 2; label: biotin
Chain of ZEBRA full-length (Z-FL) (P03206 whole entry, the tested form may be a part, one chain of several): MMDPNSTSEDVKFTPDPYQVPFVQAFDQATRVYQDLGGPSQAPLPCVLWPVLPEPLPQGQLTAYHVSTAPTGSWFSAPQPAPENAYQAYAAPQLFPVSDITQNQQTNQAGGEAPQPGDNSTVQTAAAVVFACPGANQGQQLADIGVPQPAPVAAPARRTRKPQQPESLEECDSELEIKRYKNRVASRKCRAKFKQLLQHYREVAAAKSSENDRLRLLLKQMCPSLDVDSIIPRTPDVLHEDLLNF

[6] = biological target: ZEBRA Z8 (Epstein-Barr virus, UniProt P03206 P03206:195-245); assay: EMSA; dimerization domain without DNA-binding domain; details: tags: N-terminal His6 (pET15b); label: biotin
Chain of ZEBRA Z8 (P03206 195-245, one chain of several): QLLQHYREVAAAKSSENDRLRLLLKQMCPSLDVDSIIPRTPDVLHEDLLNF

[7] = biological target: ZEBRA Z6 (Epstein-Barr virus, UniProt P03206 SEQ:1-75); assay: EMSA; efficiency almost equal to full-length ZEBRA; poly(dI-dC), 4 C; details: tags: N-terminal His6 (pET15b); chain copies: 2; label: biotin
Chain of ZEBRA Z6 (P03206 171-245): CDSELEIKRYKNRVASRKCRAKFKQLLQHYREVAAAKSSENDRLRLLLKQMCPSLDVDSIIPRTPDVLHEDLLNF

[8] = biological target: ZEBRA Z4 (Epstein-Barr virus, UniProt P03206 SEQ:1-105); assay: as above; details: tags: N-terminal His6 (pET15b); chain copies: 2; label: biotin
Chain of ZEBRA Z4 (P03206 141-245): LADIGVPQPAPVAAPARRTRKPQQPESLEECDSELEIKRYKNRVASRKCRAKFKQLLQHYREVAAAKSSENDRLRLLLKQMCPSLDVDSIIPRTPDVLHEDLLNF

B1: AP-1 probe (dsDNA)
DNA 1: AGCACTGACTCATGAAGT
DNA 2: TACTTCATGAGTCAGTGCT
binding result [1]: no binding
binding result [2]: no binding
binding result [3]: no binding
binding result [4]: no binding
binding result [5]: binds
binding result [6]: no binding
binding result [7]: binds
binding result [8]: binds
